Results from paper PMC12136491, “Establishment of an efficient one-step enzymatic synthesis of cyclic-2,3-diphosphoglycerate” (Frontiers in Microbiology, 2025).
Values joined by “and” are separate entries in the source; they are usually repeats but may differ in a detail not shown here. Equal entries are not always repeated.

Biological target: the molecule itself
Test: SEC; native molecular mass; Superose Increase 10/300 column, 50 mM MES/KOH (pH 6.5), 400 mM KCl, flow rate 0.5 mL/min, 5 mg of protein loaded

B1: cyclic-2,3-diphosphoglycerate synthetase from Methanothermus fervidus, recombinant, without affinity tag (enzyme, UniProt O93732 1-460, looked up)
chain: MGETKKMICLVDGEHYFPVVKDSIEILDDLEHIDVVAVVFIGGTEKLQIEDPKEYSEKLGKPVFFGPDPKKIPYDVIKKCVKKYNADIVMDLSDEPVVDYTKRFRIASIVLKEGAVYQGADFKFEPLTEYDVLEKPSIKIIGTGKRIGKTAVSAYAARVIHKHKYNPCVVAMGRGGPREPEIVEGNKIEITAEYLLEQADKGVHAASDHWEDALMSRILTVGCRRCGGGMLGDTFITNVKRGAEIANKLDSDFVIMEGSGAAIPPVKTNRQIVTVGANQPMININNFFGPFRIGLADLVIITMCEEPMATTEKIKKVEKFIKEINPSANVIPTVFRPKPVGNVEGKKVLFATTAPKVVVGKLVNYLESKYGCDVVGVTPHLSNRPLLRRDLKKYINKADLMLTELKAAAVDVATRVAIEAGLDVVYCDNIPVVIDESYGNIDDAIIEVVEMAIDDFKNNR
notes: cyclic 2,3-diphosphoglycerate synthetase (cdpgs gene, 1,383 bp) of Methanothermus fervidus, Mfer_0077, CAA70986; calculated molecular mass 50.7 kDa; codon-optimized gene, no tag; also called MfcDPGS; cDPGS
stoichiometry N: 2 and 4
